According to IntAct's records for PubMed 18354482:

B1: RE1-silencing transcription factor (Homo sapiens), Q13127 (parent)
chain: MATQVMGQSSGGGGLFTSSGNIGMALPNDMYDLHDLSKAELAAPQLIMLANVALTGEVNGSCCDYLVGEERQMAELMPVGDNNFSDSEEGEGLEESADIKGEPHGLENMELRSLELSVVEPQPVFEASGAPDIYSSNKDLPPETPGAEDKGKSSKTKPFRCKPCQYEAESEEQFVHHIRVHSAKKFFVEESAEKQAKARESGSSTAEEGDFSKGPIRCDRCGYNTNRYDHYTAHLKHHTRAGDNERVYKCIICTYTTVSEYHWRKHLRNHFPRKVYTCGKCNYFSDRKNNYVQHVRTHTGERPYKCELCPYSSSQKTHLTRHMRTHSGEKPFKCDQCSYVASNQHEVTRHARQVHNGPKPLNCPHCDYKTADRSNFKKHVELHVNPRQFNCPVCDYAASKKCNLQYHFKSKHPTCPNKTMDVSKVKLKKTKKREADLPDNITNEKTEIEQTKIKGDVAGKKNEKSVKAEKRDVSKEKKPSNNVSVIQVTTRTRKSVTEVKEMDVHTGSNSEKFSKTKKSKRKLEVDSHSLHGPVNDEESSTKKKKKVESKSKNNSQEVPKGDSKVEENKKQNTCMKKSTKKKTLKNKSSKKSSKPPQKEPVEKGSAQMDPPQMGPAPTEAVQKGPVQVEPPPPMEHAQMEGAQIRPAPDEPVQMEVVQEGPAQKELLPPVEPAQMVGAQIVLAHMELPPPMETAQTEVAQMGPAPMEPAQMEVAQVESAPMQVVQKEPVQMELSPPMEVVQKEPVQIELSPPMEVVQKEPVKIELSPPIEVVQKEPVQMELSPPMGVVQKEPAQREPPPPREPPLHMEPISKKPPLRKDKKEKSNMQSERARKEQVLIEVGLVPVKDSWLLKESVSTEDLSPPSPPLPKENLREEASGDQKLLNTGEGNKEAPLQKVGAEEADESLPGLAANINESTHISSSGQNLNTPEGETLNGKHQTDSIVCEMKMDTDQNTRENLTGINSTVEEPVSPMLPPSAVEEREAVSKTALASPPATMAANESQEIDEDEGIHSHEGSDLSDNMSEGSDDSGLHGARPVPQESSRKNAKEALAVKAAKGDFVCIFCDRSFRKGKDYSKHLNRHLVNVYYLEEAAQGQE

Variants of: B1
Conditions: with fbw1a_human BTRC

Variant | effect of a mutation on the interaction
E1009A;S1013A | disrupting interaction strength
E1009A | disrupting interaction strength
S1013A | disrupting interaction strength
